From patent US20110105397A1, “METHOD FOR TREATING HEART FAILURE WITH STRESSCOPIN-LIKE PEPTIDES” (priority 2009, published 2011)
Where no end group is shown, it is not given here. The star is where a group is joined. Succinimide(1-Et,3-yl) = CCN1C(=O)CC(*)C1=O

T1: human corticotrophin releasing hormone receptor type 2 (CRHR2) (human, UniProt Q13324 1-411)
T1 sequence (looked up): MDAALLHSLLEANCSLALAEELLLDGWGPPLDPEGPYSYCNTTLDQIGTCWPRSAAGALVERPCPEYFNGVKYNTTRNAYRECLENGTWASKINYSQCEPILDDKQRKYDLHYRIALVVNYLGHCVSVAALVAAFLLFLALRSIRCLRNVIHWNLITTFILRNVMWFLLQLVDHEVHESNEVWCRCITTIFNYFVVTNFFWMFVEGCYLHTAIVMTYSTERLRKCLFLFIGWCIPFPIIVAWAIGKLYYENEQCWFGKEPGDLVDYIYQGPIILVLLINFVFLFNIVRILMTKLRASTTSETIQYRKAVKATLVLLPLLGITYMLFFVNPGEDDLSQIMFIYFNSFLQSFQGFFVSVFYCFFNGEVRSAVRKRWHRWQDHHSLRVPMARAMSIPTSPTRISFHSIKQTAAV


Target: T1, human corticotrophin releasing hormone …
Assay: cell-based or functional assay

Binder	Log DR [log10]	pA50
TKFTLSLDVPTNIMNLLFNIAKAKNLRAQAAANAHLMAQC(Succinimide(1-Et,3-yl))-NH2 (N-terminus assumed; SMILES CC[C@H](C)[C@H](NC(=O)[C@H](CC(N)=O)NC(=O)[C@H](Cc1ccccc1)NC(=O)[C@H](CC(C)C)NC(=O)[C@H](CC(C)C)NC(=O)[C@H](CC(N)=O)NC(=O)[C@H](CCSC)NC(=O)[C@@H](NC(=O)[C@H](CC(N)=O)NC(=O)[C@@H](NC(=O)[C@@H]1CCCN1C(=O)[C@@H](NC(=O)[C@H](CC(=O)O)NC(=O)[C@H](CC(C)C)NC(=O)[C@H](CO)NC(=O)[C@H](CC(C)C)NC(=O)[C@@H](NC(=O)[C@H](Cc1ccccc1)NC(=O)[C@H](CCCCN)NC(=O)[C@@H](N)[C@@H](C)O)[C@@H](C)O)C(C)C)[C@@H](C)O)[C@@H](C)CC)C(=O)N[C@@H](C)C(=O)N[C@@H](CCCCN)C(=O)N[C@@H](C)C(=O)N[C@@H](CCCCN)C(=O)N[C@@H](CC(N)=O)C(=O)N[C@@H](CC(C)C)C(=O)N[C@@H](CCCNC(=N)N)C(=O)N[C@@H](C)C(=O)N[C@@H](CCC(N)=O)C(=O)N[C@@H](C)C(=O)N[C@@H](C)C(=O)N[C@@H](C)C(=O)N[C@@H](CC(N)=O)C(=O)N[C@@H](C)C(=O)N[C@@H](Cc1c[nH]cn1)C(=O)N[C@@H](CC(C)C)C(=O)N[C@@H](CCSC)C(=O)N[C@@H](C)C(=O)N[C@@H](CCC(N)=O)C(=O)N[C@@H](CSC1CC(=O)N(CC)C1=O)C(N)=O) [Cys-variant of stresscopin peptide with N-Ethylsuccinimide (NES) reactive group SEQ ID NO: 42]	~1.72	~7.75 -log10(M)
TKFTLSLDVPTNIMNLLFNIAKAKNLRAQAAANAC(Succinimide(1-Et,3-yl))LMAQI-NH2 (N-terminus assumed; SMILES CC[C@H](C)[C@H](NC(=O)[C@H](CCC(N)=O)NC(=O)[C@H](C)NC(=O)[C@H](CCSC)NC(=O)[C@H](CC(C)C)NC(=O)[C@H](CSC1CC(=O)N(CC)C1=O)NC(=O)[C@H](C)NC(=O)[C@H](CC(N)=O)NC(=O)[C@H](C)NC(=O)[C@H](C)NC(=O)[C@H](C)NC(=O)[C@H](CCC(N)=O)NC(=O)[C@H](C)NC(=O)[C@H](CCCNC(=N)N)NC(=O)[C@H](CC(C)C)NC(=O)[C@H](CC(N)=O)NC(=O)[C@H](CCCCN)NC(=O)[C@H](C)NC(=O)[C@H](CCCCN)NC(=O)[C@H](C)NC(=O)[C@@H](NC(=O)[C@H](CC(N)=O)NC(=O)[C@H](Cc1ccccc1)NC(=O)[C@H](CC(C)C)NC(=O)[C@H](CC(C)C)NC(=O)[C@H](CC(N)=O)NC(=O)[C@H](CCSC)NC(=O)[C@@H](NC(=O)[C@H](CC(N)=O)NC(=O)[C@@H](NC(=O)[C@@H]1CCCN1C(=O)[C@@H](NC(=O)[C@H](CC(=O)O)NC(=O)[C@H](CC(C)C)NC(=O)[C@H](CO)NC(=O)[C@H](CC(C)C)NC(=O)[C@@H](NC(=O)[C@H](Cc1ccccc1)NC(=O)[C@H](CCCCN)NC(=O)[C@@H](N)[C@@H](C)O)[C@@H](C)O)C(C)C)[C@@H](C)O)[C@@H](C)CC)[C@@H](C)CC)C(N)=O) [Cys-variant of stresscopin peptide with N-Ethylsuccinimide (NES) reactive group SEQ ID NO: 43]	-0.32	9.79 -log10(M)
TKFTLSLDVPTNIMNLLFNIAKAKNLRAQAAC(Succinimide(1-Et,3-yl))NAHLMAQI-NH2 (N-terminus assumed; SMILES CC[C@H](C)[C@H](NC(=O)[C@H](CCC(N)=O)NC(=O)[C@H](C)NC(=O)[C@H](CCSC)NC(=O)[C@H](CC(C)C)NC(=O)[C@H](Cc1c[nH]cn1)NC(=O)[C@H](C)NC(=O)[C@H](CC(N)=O)NC(=O)[C@H](CSC1CC(=O)N(CC)C1=O)NC(=O)[C@H](C)NC(=O)[C@H](C)NC(=O)[C@H](CCC(N)=O)NC(=O)[C@H](C)NC(=O)[C@H](CCCNC(=N)N)NC(=O)[C@H](CC(C)C)NC(=O)[C@H](CC(N)=O)NC(=O)[C@H](CCCCN)NC(=O)[C@H](C)NC(=O)[C@H](CCCCN)NC(=O)[C@H](C)NC(=O)[C@@H](NC(=O)[C@H](CC(N)=O)NC(=O)[C@H](Cc1ccccc1)NC(=O)[C@H](CC(C)C)NC(=O)[C@H](CC(C)C)NC(=O)[C@H](CC(N)=O)NC(=O)[C@H](CCSC)NC(=O)[C@@H](NC(=O)[C@H](CC(N)=O)NC(=O)[C@@H](NC(=O)[C@@H]1CCCN1C(=O)[C@@H](NC(=O)[C@H](CC(=O)O)NC(=O)[C@H](CC(C)C)NC(=O)[C@H](CO)NC(=O)[C@H](CC(C)C)NC(=O)[C@@H](NC(=O)[C@H](Cc1ccccc1)NC(=O)[C@H](CCCCN)NC(=O)[C@@H](N)[C@@H](C)O)[C@@H](C)O)C(C)C)[C@@H](C)O)[C@@H](C)CC)[C@@H](C)CC)C(N)=O) [Cys-variant of stresscopin peptide with N-Ethylsuccinimide (NES) reactive group SEQ ID NO: 45]	-0.01	9.48 -log10(M)
TKFTLSLDVPTNIMNLLFNIAKAKNLRAQAAAC(Succinimide(1-Et,3-yl))AHLMAQI-NH2 (N-terminus assumed; SMILES CC[C@H](C)[C@H](NC(=O)[C@H](CCC(N)=O)NC(=O)[C@H](C)NC(=O)[C@H](CCSC)NC(=O)[C@H](CC(C)C)NC(=O)[C@H](Cc1c[nH]cn1)NC(=O)[C@H](C)NC(=O)[C@H](CSC1CC(=O)N(CC)C1=O)NC(=O)[C@H](C)NC(=O)[C@H](C)NC(=O)[C@H](C)NC(=O)[C@H](CCC(N)=O)NC(=O)[C@H](C)NC(=O)[C@H](CCCNC(=N)N)NC(=O)[C@H](CC(C)C)NC(=O)[C@H](CC(N)=O)NC(=O)[C@H](CCCCN)NC(=O)[C@H](C)NC(=O)[C@H](CCCCN)NC(=O)[C@H](C)NC(=O)[C@@H](NC(=O)[C@H](CC(N)=O)NC(=O)[C@H](Cc1ccccc1)NC(=O)[C@H](CC(C)C)NC(=O)[C@H](CC(C)C)NC(=O)[C@H](CC(N)=O)NC(=O)[C@H](CCSC)NC(=O)[C@@H](NC(=O)[C@H](CC(N)=O)NC(=O)[C@@H](NC(=O)[C@@H]1CCCN1C(=O)[C@@H](NC(=O)[C@H](CC(=O)O)NC(=O)[C@H](CC(C)C)NC(=O)[C@H](CO)NC(=O)[C@H](CC(C)C)NC(=O)[C@@H](NC(=O)[C@H](Cc1ccccc1)NC(=O)[C@H](CCCCN)NC(=O)[C@@H](N)[C@@H](C)O)[C@@H](C)O)C(C)C)[C@@H](C)O)[C@@H](C)CC)[C@@H](C)CC)C(N)=O) [Cys-variant of stresscopin peptide with N-Ethylsuccinimide (NES) reactive group SEQ ID NO: 44]	~1.97	~7.5 -log10(M)
TKFTLSLDVPTNIMNLLFNIAKAKNLRCQAAANAHLMAQI (NES-PEG MW2000 on Cys 28; C-terminal amide (-NH2)) [Pegylated Cys-variant stresscopin-like peptide, NES-PEG MW2000, SEQ ID NO: 95]	0.43	9.31 -log10(M)
TKFTLSLDVPTNIMNLLFNIAKAKNLRCQAAANAHLMAQI (NES-PEG MW5000 on Cys 28; C-terminal amide (-NH2)) [Pegylated Cys-variant stresscopin-like peptide, NES-PEG MW5000, SEQ ID NO: 96]	1	8.74 -log10(M)

The next lines start with the values.

Log DR [log10]	pA50	Binder
~0.74	~9 -log10(M)	TKFTLSLDVPTNIMNLLFNIAKAKNLRCQAAANAHLMAQI (NES-PEG MW12000 on Cys 28; C-terminal amide (-NH2)) [Pegylated Cys-variant stresscopin-like peptide, NES-PEG MW12000, SEQ ID NO: 97]
0.8	8.94 -log10(M)	TKFTLSLDVPTNIMNLLFNIAKAKNLRCQAAANAHLMAQI (NES-PEG MW30000 on Cys 28; C-terminal amide (-NH2)) [Pegylated Cys-variant stresscopin-like peptide, NES-PEG MW30000, SEQ ID NO: 99]
0.18	9.5 -log10(M)	TKFTLSLDVPTNIMNLLFNIAKAKNLRCQAAANAHLMAQI-NH2 (not fully specified (residue 28); also: PEG with maleimide at both ends, peptide chains per PEG not given here) [Pegylated Cys-variant stresscopin-like peptide, NES-PEG MW20000 & DOUBLE-ENDED, SEQ ID NO: 98]
